Data on 1 substance can be found in patent US12612465B2, “Formulations comprising PCSK9 specific monoclonal antibodies” (Amgen Inc., priority 2012, dated 2026).

A short description of series [1]: Viscosity measurement of 11F1 formulations. The class given is physicochemical. As to conditions: 10 mM sodium acetate. Here is the method:
Concentration determination was then carried out by measuring absorbance at A280 using an Agilent 8453 Spectrophotometer (Santa Clara, Calif.). Protein concentration was calculated using the appropriate extinction coefficient. The appropriate amount of buffer was then added to the sample to dilute it back down to the desired concentration and another A280 was performed to obtain the final concentration for the experiment. Excipients were added individually to the 11F1 formulations samples derived from the high concentration stock solutions.
Viscosity was measured using Brookfield LV-DVII cone and plate viscometer (Middleboro, Mass.) with a CPE-40 spindle with matching sample cup temperature regulated by a circulating water bath at constant 25° C. 500 μL of sample was added to sample cup with positive displacement pipettor. […] At this point the rotational speed was stopped and a viscosity reading was generated by Rheocalc software.
High concentration protein formulations were sometimes measured using a different type of viscometer, an Anton Paar Physica Model MCR300 with a CP50-1 spindle. A 600 uL sample is used in this instrument and Rheoplus software version 3.4 was use to calculate solution viscosity. There was not a large difference in measurements using either viscometer.

The next series addresses T1, human PCSK9 (Homo sapiens, UniProt Q8NBP7, E620G/G670E/V474I).
T1 construct: made in house
In words: Serum lipids in C57BL/6 mice expressing human PCSK9 by AAV. As to conditions: 30 mg/kg IV bolus. The class given is in vivo, mouse. Here is the method:
Briefly, 120 C57BL/6 mice expressing human PCSK9 were generated by infection with an engineered adeno associated virus (AAV) coding for human PCSK9, resulting in elevated levels of circulating low density lipoprotein cholesterol (LDL-C). Serum cholesterol analysis was performed using the Cobas Integra 400 plus chemistry analyzer (Roche Diagnostics, Indianapolis, Ind.). Animals were randomized into treatment groups with similar levels of non-HDL-C (LDL-C and VLDL-C), HDL-C and TC. On treatment day 0 (T=0) a subset of mice was euthanized and serum collected to establish that day's baseline levels. Remaining mice were then administered 11F1, 8A3 or anti-keyhole limpethemocyanin (KLH) IgG2 control antibody at 30 mg/kg. via tail vein injection. At days 1 through 5 following injection, subsets of mice were euthanized and whole blood was collected from the vena cava and allowed to coagulate for 30 minutes at room temperature. Following centrifugation at 12,000 rpm with a bench top centrifuge for 10 minutes, serum was collected. Serum cholesterol analysis was performed using the Cobas Integra 400 plus chemistry analyzer.
All cholesterol results were expressed as the mean±standard error of the mean. All pharmacokinetic data were expressed as the mean±standard deviation. The p value of 0.05, determined by 1-way ANOVA was used as a threshold to determine statistical significance between the anti-KLH IgG2 control antibody injected animals and those dosed with anti-PCSK9 antibody at the same time point.

The nature of series [2]: Pharmacokinetics in mice expressing human PCSK9 by AAV. Conditions: 30 mg/kg intravenous. The class given is in vivo, mouse. On the procedure:
Serum concentrations of antibody were determined using a sandwich ELISA assay. Polyclonal goat anti-human Fc IgG and an HRP-labeled goat anti-human IgG Fcγ polyclonal reagent (both from Jackson ImmunoResearch Laboratories Inc, West Grove, Pa.) were used as the capture and the detection antibody, respectively. A 3,3′,5,5′ tetramethylbenzidine (TMB) substrate solution reacted with peroxide, and in the presence of horse radish peroxidase (HRP), created a colorimetric signal that was proportional to the amount of the respective anti-PCSK9 antibody bound by the capture reagent. The intensity of the color (optical density, OD) was measured at 450 nm minus 650 nm using a microplate reader (Spectra Max Plus 384). Data was analyzed using Watson version 7.0.0.01 (Thermo Scientific, Waltham, Mass.) data reduction package with a Logistic (auto-estimate) regression of separately prepared standard curves. The lower limit of quantification (LLOQ) for the assay was […].
Non-compartmental analysis (NCA) was performed on serum concentrations using the pre-determined nominal time points for each subject using WinNonlin Enterprise, version 5.1.1 (Pharsight, St. Louis, Mo.). […] NCA parameters reported include: apparent half-life (t½), area under the serum concentration-time curve from time zero to the last measured concentration (AUC0-t), and apparent serum clearance (CL0-t). […]

T1 sequence (Q8NBP7 153-692 V474I/E620G/G670E): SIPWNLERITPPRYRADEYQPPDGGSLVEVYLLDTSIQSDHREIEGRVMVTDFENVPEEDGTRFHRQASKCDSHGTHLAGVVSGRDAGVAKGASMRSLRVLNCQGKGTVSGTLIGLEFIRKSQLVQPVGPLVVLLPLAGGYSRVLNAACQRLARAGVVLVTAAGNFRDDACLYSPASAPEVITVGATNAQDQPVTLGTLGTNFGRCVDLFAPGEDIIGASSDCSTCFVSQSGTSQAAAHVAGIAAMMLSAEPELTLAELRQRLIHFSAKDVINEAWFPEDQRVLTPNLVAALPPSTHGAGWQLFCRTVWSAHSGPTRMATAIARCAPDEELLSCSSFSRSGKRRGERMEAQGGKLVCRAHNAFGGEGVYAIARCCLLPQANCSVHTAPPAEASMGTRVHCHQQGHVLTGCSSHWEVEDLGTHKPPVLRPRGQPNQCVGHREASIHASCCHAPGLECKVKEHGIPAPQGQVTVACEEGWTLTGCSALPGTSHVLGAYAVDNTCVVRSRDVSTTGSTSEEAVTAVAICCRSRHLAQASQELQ

“11F1: anti-PCSK9 ABP, light/heavy variable region SEQ ID NO 465/463 [Antibody 11F1]”: the “Viscosity @ 25 C.” value in series [1] (145 mg/mL, 9% Sucrose 0.01% PS 20, pH 5.2) amounted to 14 cP; in series [1] (147 mg/mL, 150 mM Methionine, 3% Sucrose, 0.01% PS 20, pH 5.2), 13 cP; in series [1] (170 mg/mL, 250 mM Praline, 0.01% PS 20, pH 5.0), 18 cP; in series [1] (172 mg/mL, 9% Sucrose 0.01% PS 20, pH 5.2) it was 23 cP; in series [1] (186 mg/mL, 9% Sucrose 0.01% PS 20, pH 5.2), 45 cP; in series [1] (191 mg/mL, 9% Sucrose 0.01% PS 20, pH 5.2), 53 cP. Besides, the “Viscosity @ 25 C.” value in series [1] (192 mg/mL, 150 mM Methionine, 3% Sucrose, 0.01% PS 20, pH 5.2) is listed as 31 cP; in series [1] (196 mg/mL, 250 mM Praline, 0.01% PS 20, pH 5.0), 36 cP; in series [1] (211 mg/mL, 9% Sucrose, 100 mM Arginine, pH 5.2) it was 26 cP; in series [1] (211 mg/mL, 9% Sucrose, 150 mM Alanine, pH 5.2), 43 cP; in series [1] (211 mg/mL, 9% Sucrose, 150 mM Glycine, pH 5.2), 45 cP; in series [1] (211 mg/mL, 9% Sucrose, 150 mM Serine, pH 5.2), 48 cP. Further, the “Viscosity @ 25 C.” value in series [1] (211 mg/mL, 9% Sucrose, 150 mM sodium chloride, pH 5.2) was found to be 62 cP; in series [1] (211 mg/mL, 9% Sucrose, pH 5.2), 73 cP; in series [1] (211 mg/mL, pH 5.2), 58 cP; in series [1] (212 mg/mL, 150 mM Methionine, 3% Sucrose, 0.01% PS 20, pH 5.2) it was 54 cP; in series [1] (212 mg/mL, 250 mM Praline, 0.01% PS 20, pH 5.0), 47 cP; in series [1] (224 mg/mL, 9% Sucrose 0.01% PS 20, pH 5.2), 133 cP. For the same substance, the “Viscosity @ 25 C.” value in series [1] ([…], 150 mM Methionine, 3% Sucrose, 0.01% PS 20, pH 5.2) was found to be 18 cP; in series [1] ([…], 9% Sucrose 0.01% PS 20, pH 5.2), 8 cP. The “lowering of HDL-C vs control animals” value in the series with human PCSK9 (any time point) is listed as “No significant lowering of HDL-C”. In addition, the “lowering of TC vs control animals” value with human PCSK9 (day 4 only) was 22%. For the same substance, the “maximum lowering of serum non-HDL-C vs control animals” value in the series with human PCSK9 (significant at days 1, 2 and 4 post-injection) came out at 59%. Moreover, the “AUC0-t exposures, estimated CL0-t and apparent half-lives of 11F1 vs 8A3” value in series [2] is on record as “equivalent”.
